US20230272390A1, “COMPOSITIONS AND METHODS FOR HEMOGLOBIN PRODUCTION” (THE CHILDREN'S HOSPITAL OF PHILADELPHIA, priority 2020, published 2023)

Molecular target: T1, endogenous ZNF410 (Homo sapiens, UniProt Q86VK4)
T1 construct: endogenous in cells; host or cells: HUDEP-2 (HUDEP-2-Cas9) cells, differentiated
T1 sequence (Q86VK4 1-478): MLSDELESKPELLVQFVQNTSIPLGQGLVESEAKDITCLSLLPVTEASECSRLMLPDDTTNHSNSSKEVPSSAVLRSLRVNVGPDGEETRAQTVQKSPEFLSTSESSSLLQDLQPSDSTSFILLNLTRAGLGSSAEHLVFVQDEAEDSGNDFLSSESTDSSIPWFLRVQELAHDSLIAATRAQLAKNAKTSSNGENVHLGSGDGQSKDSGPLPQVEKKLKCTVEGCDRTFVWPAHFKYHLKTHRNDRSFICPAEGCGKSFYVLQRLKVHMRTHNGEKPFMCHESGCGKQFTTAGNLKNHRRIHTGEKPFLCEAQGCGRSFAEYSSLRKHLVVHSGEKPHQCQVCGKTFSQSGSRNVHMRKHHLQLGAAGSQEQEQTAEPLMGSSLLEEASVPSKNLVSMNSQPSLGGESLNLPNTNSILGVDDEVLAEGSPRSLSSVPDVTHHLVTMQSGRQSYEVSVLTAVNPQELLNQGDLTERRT
Experiment: RT-qPCR in HUDEP-2 cells overexpressing HA-tagged ZNF410 constructs
Assay type: cell-based
Description: HUDEP-2 cells were cultured and differentiated as described (Kurita, et al. (2013) PLoS One 8:e59890). Briefly, StemSpan™ Serum-Free Expansion Medium (SFEM) supplemented with 50 ng/ml human stem cell factor (SCF), 10 μM dexamethasone, 1 μg/ml doxycycline, 3 IU/ml erythropoietin and 1% penicillin/streptomycin was utilized for routine cell maintenance. Cell density was kept at 0.1-1×10^6/ml. HUDEP-2 cells were differentiated for 6-7 days in IMDM supplemented with 50 ng/ml human SCF, 3 IU/ml erythropoietin, 2.5% fetal bovine serum, 250 μg/ml holo-transferrin, 10 ng/ml heparin, 10 μg/ml insulin, 1 μg/ml doxycycline and 1% penicillin/streptomycin.
SgRNAs were cloned into a lentiviral U6-sgRNA-EFS-GFP/mCherry expression vector (LRG, Addgene: #65656) by BsmBI digestion. The ZNF410 cDNA (clone ID: OHu10535), CHD4 cDNA (clone ID: OHu28780) were purchased from GenScript and were sub-cloned into a lentiviral vector pSDM101-IRES-GFP. ZNF410 variants were sub-cloned into pSDM101-IRES-GFP vector. The N-terminal HA tag was introduced by PCR. For EMSA, the ZNF410 full length or different ZF versions were sub-cloned into mammalian expression vector pcDNA3.
Lentivirus was produced as described (Grevet, et al. (2018) Science 361:285-290). Briefly, 10-20 μg of expression vectors, 5-10 μg of pVSVG (pMD2.G) and 7.5-15 μg of psPAX2 package plasmids, and 80 μl of 1 mg/ml polyethylenimine (PEI) were mixed, incubated for 15-20 minutes, and added to HEK293T cells grown in 10 cm plates to above 90% confluence. Media were replaced 6-8 hours post transfection, virus was collected 24 hours and 48 hours post-transfection and pooled. For infection, virus-containing supernatant was mixed with the indicated cell lines with 8 μg/ml polybrene and 10 mM HEPES, and then spun at 2250 rpm for 1.5 hours at room temperature. Infected HUDEP-2 cells were selected for mCherry+ or GFP+ cell sorting at 48 hours post-infection.
Total RNA was purified using the RNeasy® Plus Mini Kit (Qiagen), including an on-column DNAse treatment using RNase-free DNase set (Qiagen) to remove genomic DNA. Reverse transcription was accomplished using iScript™ Supermix (Bio-Rad). qPCR reactions were prepared with Power SYBR® Green (ThermoFisher Scientific). Quantification was performed using the ΔΔCT method.
Overexpression of ZF1-5 but not ZF2-4 should compete with endogenous ZNF410 for chromatin binding, thus acting in a dominant-negative manner. To test this hypothesis, a construct containing HA-tagged ZF1-5 or ZF2-4 driven by the EF1α promoter was introduced via lentiviral infection into HUDEP-2 cells. As control, the expression of full-length HA-tagged ZNF410 was forced. […] Moreover, full-length HA-ZNF410 when overexpressed to similar levels to HA-ZF1-5 also produced similar binding patterns (FIG. 4A). […] Thus, the ZF region is sufficient for chromatin occupancy but insufficient for CHD4 gene activation. […] Finally, the impact of ZNF410 expression on γ-globin levels was also measured.

[1] = overexpression in HUDEP-2 cells

B1: ZF1-5: fragment of human ZNF410 comprising five zinc finger domains ZF1-5 (residues 217-366); dominant-negative when overexpressed (protein)
chain: KKLKCTVEGCDRTFVWPAHFKYHLKTHRNDRSFICPAEGCGKSFYVLQRLKVHMRTHNGEKPFMCHESGCGKQFTTAGNLKNHRRIHTGEKPFLCEAQGCGRSFAEYSSLRKHLVVHSGEKPHQCQVCGKTFSQSGSRNVHMRKHHLQLG
modifications: left off: small tags and cut ends
notes: fragment of human ZNF410 comprising five zinc finger domains ZF1-5 (residues 217-366); dominant-negative when overexpressed
effect on expression of the other 6 ZNF410 bound genes [1]: did not impact | reduction of CHD4 mRNA levels compared to control [1]: approximately 70% | effect on γ-globin mRNA levels (overexpression in differentiated HUDEP-2 cells): significant increase
